The text below walks through data of article PMC6827562 (Structure (London, England : 1993), 2019).

Data set [1] addresses PP-1c (Homo sapiens) (UniProt P62136). As to conditions: cited from earlier work.
In data set [2] the target is p53 DBD (human, UniProt P04637 94-292). Kind of data set: EMSA.
Data set [3] deals with T1, Protein phosphatase-1cα (PP-1cα) (human, UniProt P62136 1-330). The data set is described as follows: SEC-MALS. A general note: In gel filtration, larger molecules generally elute earlier.
T1 sequence (P62136 whole entry): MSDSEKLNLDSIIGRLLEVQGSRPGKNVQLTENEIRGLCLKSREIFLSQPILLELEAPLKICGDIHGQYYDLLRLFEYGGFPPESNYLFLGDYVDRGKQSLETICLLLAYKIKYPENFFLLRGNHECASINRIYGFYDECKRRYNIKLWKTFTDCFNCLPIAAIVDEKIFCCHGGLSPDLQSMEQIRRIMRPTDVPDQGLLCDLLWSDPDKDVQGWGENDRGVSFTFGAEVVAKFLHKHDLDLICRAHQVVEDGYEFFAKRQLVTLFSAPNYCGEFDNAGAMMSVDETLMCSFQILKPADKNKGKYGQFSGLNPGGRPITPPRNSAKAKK
In data set [4] the target is T1, Protein phosphatase-1cα (PP-1cα). Kind of data set: crystal structure.

Chain of PP-1c (Homo sapiens) (P62136 2-330): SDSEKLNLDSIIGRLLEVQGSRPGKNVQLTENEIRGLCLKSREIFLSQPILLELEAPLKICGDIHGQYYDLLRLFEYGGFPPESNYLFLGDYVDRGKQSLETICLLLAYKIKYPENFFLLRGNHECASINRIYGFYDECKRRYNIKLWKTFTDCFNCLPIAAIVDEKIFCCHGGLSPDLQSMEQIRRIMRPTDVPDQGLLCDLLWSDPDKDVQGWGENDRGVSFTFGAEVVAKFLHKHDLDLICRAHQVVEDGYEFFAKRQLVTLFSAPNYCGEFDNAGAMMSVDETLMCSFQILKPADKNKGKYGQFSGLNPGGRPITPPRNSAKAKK
Chain of p53 DBD (P04637 94-292): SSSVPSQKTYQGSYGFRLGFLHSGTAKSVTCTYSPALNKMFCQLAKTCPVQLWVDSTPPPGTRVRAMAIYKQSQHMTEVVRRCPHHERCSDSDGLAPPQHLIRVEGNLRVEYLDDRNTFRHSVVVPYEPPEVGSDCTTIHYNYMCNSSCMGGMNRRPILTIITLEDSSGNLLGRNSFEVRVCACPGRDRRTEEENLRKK

As usually defined, the Kd is the constant that tells how readily two partners part at equilibrium. Regarding iASPP (from UniProt Q8WUF5), the dissociation constant (Kd) in data set [1] is 26 nM.

B1: PUMA p53 site (dsDNA)
DNA 1: CGCGCCTGCAAGTCCTGACTTGTCCGCGGC
DNA 2: GCCGCGGACAAGTCAGGACTTGCAGGCGCG
Turning to B1, the binding result in data set [2] was “binds”.

B2: iASPP(621–828) (domain or fragment, human, UniProt Q8WUF5 621-828, looked up)
chain: RRARLNPLVLLLDAALTGELEVVQQAVKEMNDPSQPNEEGITALHNAICGANYSIVDFLITAGANVNSPDSHGWTPLHCAASCNDTVICMALVQHGAAIFATTLSDGATAFEKCDPYREGYADCATYLADVEQSMGLMNSGAVYALWDYSAEFGDELSFREGESVTVLRRDGPEETDWWWAALHGQEGYVPRNYFGLFPRVKPQRSKV
Take B2: the binding result in data set [3] is “binds”.

B3: ASPP2_(905–1128) (domain or fragment, human, UniProt Q13625 905-1128, looked up)
chain: RTNLRKTGSERIAHGMRVKFNPLALLLDSSLEGEFDLVQRIIYEVDDPSLPNDEGITALHNAVCAGHTEIVKFLVQFGVNVNAADSDGWTPLHCAASCNNVQVCKFLVESGAAVFAMTYSDMQTAADKCEEMEEGYTQCSQFLYGVQEKMGIMNKGVIYALWDYEPQNDDELPMKEGDCMTIIHREDEDEIEWWWARLNDKEGYVPRNLLGLYPRIKPRQRSLA
As for B3, the binding result in data set [3] is given as “binds”.

B4: iASPP_(608–828) (domain or fragment, human, UniProt Q8WUF5 608-828, looked up)
chain: RSVLRKAGSPRKARRARLNPLVLLLDAALTGELEVVQQAVKEMNDPSQPNEEGITALHNAICGANYSIVDFLITAGANVNSPDSHGWTPLHCAASCNDTVICMALVQHGAAIFATTLSDGATAFEKCDPYREGYADCATYLADVEQSMGLMNSGAVYALWDYSAEFGDELSFREGESVTVLRRDGPEETDWWWAALHGQEGYVPRNYFGLFPRVKPQRSKV
For the molecule B4, the binding result in data set [4] is recorded as “binds”.
